Measured values: US20130022546A1 (UNIVERSITY OF TENNESSEE RESEARCH FOUNDATION, published 2013)
Ends that are not written are not given here.

Key:
Assay in all cases: biotinylated peptide overlaid on formalin-fixed amyloid-containing tissue sections; list of amyloids that p31 'specifically binds significantly'
[1] = target: ATTR amyloid (transthyretin amyloidosis) (human, UniProt P02766 21-147)
Protocol: (§1) The peptides were overlaid onto formalin-fixed 6 μm-thick amyloid-containing tissue sections, incubated overnight and then the distribution visualized using standard immunohistochemical techniques.

[2] = target: T1, ALECT2 amyloid (Lect2 amyloidosis) (human, UniProt O14960 19-151, limits assumed)
T1 construct: also called ALEC2
T1 sequence (looked up): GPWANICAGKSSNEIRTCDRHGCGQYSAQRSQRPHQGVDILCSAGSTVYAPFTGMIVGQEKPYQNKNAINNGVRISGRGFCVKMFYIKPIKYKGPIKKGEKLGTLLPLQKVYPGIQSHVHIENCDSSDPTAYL
Protocol: as §1

AA amyloid (human) = target: T2, AA amyloid (human) (human, UniProt P0DJI8 19-94, limits assumed)
T2 construct: also called serum amyloid protein A amyloidosis
T2 sequence (looked up): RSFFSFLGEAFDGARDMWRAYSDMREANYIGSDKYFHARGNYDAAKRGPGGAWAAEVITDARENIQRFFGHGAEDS
Protocol: as §1

[3] = target: Aβ amyloid (Alzheimer's disease) (human, UniProt P05067 672-713)
Protocol: as §1

AA amyloid (canine) = target: T3, AA amyloid (canine) (canine, UniProt P19708 19-111)
T3 sequence (looked up): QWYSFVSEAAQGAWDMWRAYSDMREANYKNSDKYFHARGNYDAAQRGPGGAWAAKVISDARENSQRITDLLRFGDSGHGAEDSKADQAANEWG
Protocol: as §1

Measured: binding result

B1: peptide p31 (peptide)
peptide: CGGYSKAQKAQAKQAKQAQKAQKAQAKQAKQ
modifications: also: label differs by assay: biotinyl-maleimide on Cys1 (tissue overlays), 125I on Tyr or 99mTc (imaging)
notes: Synthetic peptide with an N-terminal CGGY leader
binds: all assays above
